The source of these data is publication PMC2115667 (The Journal of Cell Biology, 1988).

For orientation: stoichiometry N means the number of molecules, sites or subunits per partner or assembly.

This series deals with the molecule itself. Description: sedimentation velocity centrifugation on glycerol gradients.

B1: cytotactin (intact, unreduced hexabrachion) (natural protein)
chain: ETGLNVTLPEDNQPVVFNHVYNIKLPVGSLCSVDLDTASGDADLKAEIEPVKNYEEHTVNEGNQIVFTHRINIPRRACGCAAAPDIKDLLSRLEELEGLVSSLREQCASGAGCCPNSQTAEGRLDTAPYCSGHGNYSTEICGCVCEPGWKGPNCSEPACPRNCLNRGLCVRGKCICEEGFTGEDCSQAACPSDCNDQGKCVDGVCVCFEGYTGPDCGEELCPHGCGIHGRCVGGRCVCHEGFTGEDCNEPLCPNNCHNRGRCVDNECVCDEGYTGEDCGELICPNDCFDRGRCINGTCFCEEGYTGEDCGELTCPNNCNGNGRCENGLCVCHEGFVGDDCSQKRCPKDCNNRGHCVDGRCVCHEGYLGEDCGELRCPNDCHNRGRCINGQCVCDEGFIGEDCGELRCPNDCHNRGRCVNGQCECHEGFIGEDCGELRCPNDCNSHGRCVNGQCVCDEGYTGEDCGELRCPNDCHNRGRCVEGRCVCDNGFMGEDCGELSCPNDCHQHGRCVDGRCVCHEGFTGEDCRERSCPNDCNNVGRCVEGRCVCEEGYMGIDCSDVSPPTELTVTNVTDKTVNLEWKHENLVNEYLVTYVPTSSGGLDLQFTVPGNQTSATIHELEPGVEYFIRVFAILKNKKSIPVSARVATYLPAPEGLKFKSVRETSVQVEWDPLSISFDGWELVFRNMQKKDDNGDITSSLKRPETSYMQPGLAPGQQYNVSLHIVKNNTRGPGLSRVITTKLDAPSQIEAKDVTDTTALITWSKPLAEIEGIELTYGPKDVPGDRTTIDLSEDENQYSIGNLRPHTEYEVTLISRRGDMESDPAKEVFVTDLDAPRNLKRVSQTDNSITLEWKNSHANIDNYRIKFAPISGGDHTELTVPKGNQATTRATLTGLRPGTEYGIGVTAVRQDRESAPATINAGTDLDNPKDLEVSDPTETTLSLRWRRPVAKFDRYRLTYVSPSGKKNEMEIPVDSTSFILRGLDAGTEYTISLVAEKGRHKSKPTTIKGSTEEEPELGNLSVSETGWDGFQLTWTAADGAYENFVIQVQQSDNPEETWNITVPGGQHSVNVTGLKANTPYNVTLYGVIRGYRTKPLYVETTTGAHPEVGELTVSDITPESFNLSWTTTNGDFDAFTIEIIDSNRLLEPMEFNISGNSRTAHISGLSPSTDFIVYLYGISHGFRTQAISAAATTEAEPEVDNLLVSDATPDGFRLSWTADDGVFDSFVLKIRDTKRKSDPLELIVPGHERTHDITGLKEGTEYEIELYGVSSGRRSQPINSVATTVVGSPKGISFSDITENSATVSWTPPRSRVDSYRVSYVPITGGTPNVVTVDGSKTRTKLVKLVPGVDYNVNIISVKGFEESEPISGILKTALDSPSGLVVMNITDSEALATWQPAIAAVDNYIVSYSSEDEPEVTQMVSGNTVEYDLNGLRPATEYTLRVHAVKDAQKSETLSTQFTTGLDAPKDLSATEVQSETAVITWRPPRAPVTDYLLTYESIDGRVKEVILDPETTSYTLTELSPSTQYTVKLQALSRSMRSKMIQTVFTTTGLLYPYPKDCSQALLNGEVTSGLYTIYLNGDRTQPLQVFCDMAEDGGGWIVFLRRQNGKEDFYRNWKNYVAGFGDPKDEFWIGLENLHKISSQGQYELRVDLRDRGETAYAVYDKFSVGDAKTRYRLRVDGYSGTAGDSMTYHNGRSFSTFDKDNDSAITNCALSYKGAFWYKNCHRVNLMGRYGDNNHSQGVNWFHWKGHEYSIQFAEMKLRPSSFRNLEGRRKRA
modifications: interchain disulfide bonds; HNK-1 carbohydrate epitope; radioiodinated (chloramine T, 125I) in the ultracentrifugation
As for B1, the “stoichiometry N” value is roughly 6.
